Experimental data published in the nanobody polyreactivity screen of Harvey et al. (2022).

Assay: yeast display, Sf9 membrane polyspecificity reagent, FACS + sequencing; frameworks hold sequencing errors
Summary of the method: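 Using colony PCR, genes from sorted yeast display clones were amplified, then sequenced on MiSeq at 2 × 250 and filtered by CDR length. The clones had been stained with 10% biotinylated, detergent-solubilized Sf9 membrane reagent for 1 hour at 4 °C and sorted by FACS into low and high (top ~1%) gates on anti-HA and streptavidin fluorescence. Polyreactivity labels come from the gate of origin.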

| Sequence | polyreactivity (PSR sort gate) |
| --- | --- |
| QVQLVESGGGLVQAGGSLRISCAASGYTFPFYTMGWYRQAPGKERELVAAINSGGSTYYADSVKGRFTISRDNAKNTVYLQMNRLKPEDTAVYYCAVEGGFRVRYQAQYRFYYWGQGTEVTVSS | high polyreactivity |
| QVQLVESGGGLVQAGGSLRISCAASVSIFPGYAMGWSRQAPGKERELVATITWSGGSTYYADSVKGRFTISRDNAKNTVYLQMNSLKPEDTAVYYCNADSNWYYQWNYYCLYDYWGQGTQVTVSS | low polyreactivity |
| QVQLVESGGGLVQAGGSLRISCAAYGSTIVTNAMGWYRQAPVKERELVAASTSGAGTYYADSVKGRFTISRDNAKNTVYLQMNCLKTEDTAVYYCAARRYYSSGRYRFGYWGQGSQVTVSS | high polyreactivity |
| QVQLVESGGGLVQAGGSLRISCADSGSIFSLYAMGWYRPAAGKERELVAAIRRGGSTYYADSVKGRFTISRDNAKNTVYLQMNSLIPEDTAVYYCAADAYSGYSDYYWGQGTHVTVSS | low polyreactivity |
| QVQLVESGGGLVQAGGSLRISCADSGSIFTYNAMGWYRQAPGKERELVAAITSSSGSSTYADSVKGRFTISRDNAKYTVYLQMNSLKPEDTAVYYCAAPILSFPSPYVQYDYWGQGTQVTVSS | low polyreactivity |
| QVQLVESGGGLVQAGGSLRISCAPSGIIFYQNTMGWYRQAPGKERELVATITKRGGSSYYADSVKGRFTISRDNAKNTVYLQMNSLKPEDTAVYYCNAAKYAASYIGYGYWGQGTQVTVSS | high polyreactivity |
| QVQLVESGGGLVQAGGSLRISCAPSGRIFNINEMGWYRPARGKEREWVARITTGGRTNYADSVKGRFTISRDNAKNTFYLQMNSLKPADTAVYYCAARTYGQLGDYWGQGTQVTVSS | high polyreactivity |
| QVQLVESGGGLVQAGGSLRISCASSGFTFSQYAMGWYRQAPGKERELVAAISSSGGRTYYADSVKGRFTISRDNAKNTVYLQMKSLKPEDTAFFYCAAPGAQGLGLRGAGLDYWGQGTQVTVSS | high polyreactivity |
| QVQLVESGGGLVQAGGSLRISCDASGSTFVANAMRSYREAPGKERELLAAISRSGGRTYYADSVKGRFTISRDNAKYTVYFQMNSLKPEDTAVYYCAADGYRSPVYANWGMGYWGQGSQVTVSS | high polyreactivity |
| QVQLVESGGGLVQAGGSLRISCDASGYIFGWNSMGWYRQAPGKERELVAAISSSGGNTYYADSVKGRFTISRDNAKNTVYLQMNSLKPEDTAVYYCARSYPYRYDYWGQGTQVTVSS | low polyreactivity |
| QVQLVESGGGLVQAGGSLRISSAASGRIFTPYVMGWYRQAPGKERELVADINLSGDSTSYADSVKGRFTITRDNAKNTVYLQMNSLKPEDTAVYYCNADSYIYVGNDQYDYWGQGTQVTVSS | low polyreactivity |
| QVQLVESGGGLVQAGGSLRISSAASGRTFFTNAKGWYRQAPGKERELVAVITYRGDSTYADSVKGRFTISRDNAKNTVYLQMNSLKPEDTAVYYCNAEFRGGRWFTYDYWGHGTQVTVSS | low polyreactivity |
| QVQLVESGGGLVQAGGSLRISSAAYGRIIYGYAMGWYRQAPGKERELVAAITWRGTSTYYADSVKGRFTISRDNAKNTVYLQMNCLKPEDTAVYYCNAVRSLAYWGQGTQVTVSS | high polyreactivity |
| QVQLVESGGGLVQAGGSLRITCAASGSIFGTNAMGWYRQAPGKERELVAAIDGGSTTYYADCVKGRFTISRDNAKNTVYLQMNSLKPEDTAVYYCAADGTRYLNYEGYAGYEYWGQGTQETVSS | low polyreactivity |
| QVQLVESGGGLVQAGGSLRITCAASGSIFYSNVMGWSRPAPGKERELVARITDAGSTNYADSVKGRFTISRDYAKNTVYLQMYSLKPEDTAVYYCIARLVIYTYDYWGQGTQVTVSS | low polyreactivity |
| QVQLVESGGGLVQAGGSLRITCAASGSNFTYNAMGRYREAPGKERELVAAIDWDGDTTYYADSVKGRFTISRDNAKNTVYLQMNSLKPEDTAVYYCAAEFYSLGKAIYEYWGQGTQVTLSS | high polyreactivity |
| QVQLVESGGGLVQAGGSLRLAVLPPDLPSTLNDMGWYRQAPGKERELVAAITRGGSTNYADSLKGRFTISRDNAKNTVYLQMNSLKPEDSAVYYCAAPYAGWGDGGDYWGQGTQVTVSS | low polyreactivity |
| QVQLVESGGGLVQAGGSLRLAVLPPDLPSTLNDMGWYRQAPGKERELVAAITRGGSTNYADSVKGRFTISRDNAKNTVYLQMNSLKPEDTAVYYCAAPYAGWRDGGDYWGQGTQVTVSS | low polyreactivity |
| QVQLVESGGGLVQAGGSLRLCCAASGIIFYSYAMGWYRQAPGKEREFVAAITNSDGSTYYADSVKGRFTISRDNAKNTVYLQMNSVKPEDTAVYMFYWGQGTQVTVSS | low polyreactivity |
| QVQLVESGGGLVQAGGSLRLCCAASGRIFDYNAMGLYRQAPGKERELVAAINSGGSTYADSVKGRFTISRDNAKNTVYLQMNSLKPEDTAVYYCANSLGQTDWEYDSWGQGTQVTVSS | low polyreactivity |
| QVQLVESGGGLVQAGGSLRLCCAASGSIFLLNAMGWYRQAPGKERELVAAISWGGGSTYYADSVKGRFTISRDNAKNTVYLQMNSLKPEDTAVYYCNASVTLGLEVDYSGQGTQVTVSS | low polyreactivity |
| QVQLVESGGGLVQAGGSLRLICAAAGRIVSYYTMGWYRQAPGKERELVAAISSGGSTNYADSVKGRFTISRDNAKNTVYLQMNSLKPEDTAVYYCAVRCGRRNYDRPAFGYWGQGTQVTVSS | high polyreactivity |

| Sequence | polyreactivity (PSR sort gate) |
| --- | --- |
| QVQLVESGGGLVQAGGSLRLICAASGFIFGHYAMGWYRQAPGNERELVAAISTGGDGTYYADSVKGRFTISRDNAKNTVYLQMNSLKPEDTAVYYCAVRHRASGILYYYWGQATQVTVSS | low polyreactivity |
| QVQLVESGGGLVQAGGSLRLICAASGFIFGNYAMGWYRQAPGKERELVATITWRGGSTYYADSVKGRFTISRDNAKNTVYLQMNSLKPEDTAVYYCARPYASYRSFYYYGYWGQGTQVTVSS | high polyreactivity |
| QVQLVESGGGLVQAGGSLRLICAASGFIFGSYAMGWYRQAPAKERELVAAINYDGGSTYYADSVKGRFTISRDNAKNTVYLQMNSMKPEDTAVYYCAADLYYTHMDYWGQGTQVTVSS | low polyreactivity |
| QVQLVESGGGLVQAGGSLRLICAASGFIFIGYAMGWYRQARGKERELVAAISWRGGTYYADSVKGRFTISRDNAKNSVYLQMNSLKPEDTAVYYCAARTRNAVRSGSGKYDYCGQGTQVTVSS | low polyreactivity |
| QVQLVESGGGLVQAGGSLRLICAASGFIFKWNAMGWYRQAPGKERELVAAITSGGGTYYADSVKGRFTISRDNAKNTVYLQMNSLKPEDTAVYYCAALGRYWPARRFDYWGQGTQVTVSS | high polyreactivity |
| QVQLVESGGGLVQAGGSLRLICAASGFIFSAYAMGWYRQAPGKERELVAAISYSGGTTYYADSVKGRFTISRDNAKNTVYLQMNSLKPEDTAVYYCAAGVGYWGQGTQVTVSS | high polyreactivity |
| QVQLVESGGGLVQAGGSLRLICAASGFIFSTYAMGWYRQAPGKERELVAAISWSGGRTNYADSVKGRFTISRDNAKNTVYLQMNSLKPEDTAVYYCARYGHSGRQYKYDYWGQGTQVTVSS | high polyreactivity |
| QVQLVESGGGLVQAGGSLRLICAASGFIFWDNAMGWYRQAPGKERELVAAISKSGTRTYYADSVKGRFTISRDNEKNTVYLQMNSLKPEDTAVYYCAAEGSGYEYYYWGQGTQVTVSS | high polyreactivity |
| QVQLVESGGGLVQAGGSLRLICAASGFSFRYYDMGWYRQAPGKERELVAAISRSGGRTYYADSVKGRFTISRDNAKNSVYLQMNSLNPEDTAVYYCNAVYNVVLSRVIYARGYWGQGTQVTVSS | high polyreactivity |
| QVQLVESGGGLVQAGGSLRLICAASGFTFASYGMGWYRQARGKERELVAAISWSGGRTYYADSVKGRFTISRDNATNTVYLQMNSLKPEDSAVYYSNAYWNPASKYDYWGQGTQVTVSS | high polyreactivity |
| QVQLVESGGGLVQAGGSLRLICAASGFTFAYYAMGWYRQATGKERELVAAISSGGGTYYADSVKGRFTISRDNAKNTVYLQMNSLKPEDTAVYYCNARYYFVFGRYNYWGQGTQVTVSS | high polyreactivity |
| QVQLVESGGGLVQAGGSLRLICAASGFTFGYNDMGWYRQAPGKERELVATITRSAGRTYYADSVKGRFTISRDNAKNTVYLQMNSLKPEDTAVYYCASSYWDTEPGYREYDYWGQGTQVTVSS | low polyreactivity |
| QVQLVESGGGLVQAGGSLRLICAASGFTFHSYAMGWYRQAPGKERELVAAITTDGSTYYADSVKGRFTISRDNAKNTVYLQMTSLKPEDTAVYYCAAGKAYWYARKPYARYYYWGQGTQVTVSS | high polyreactivity |
| QVQLVESGGGLVQAGGSLRLICAASGFTFRNNAMGWYRQAPGKERELVARITFRGGSTYYADSVKGSFTISRDNAKNTVYLQMNSLNPEHTAVYYCAVDWLSVTSTIKFVMDYWGQGTQVTVSS | low polyreactivity |
| QVQLVESGGGLVQAGGSLRLICAASGFTFRVYSMGWYRQAPGKEREFVASISWTGDTTYYADSVKGRFTISRDNAKNTVYLQMNSLKPEDTEVYYCAVDTILGYDYWGQVTQVTVSS | low polyreactivity |
| QVQLVESGGGLVQAGGSLRLICAASGFTFYIYAMGWYRQAPGKERELVAAINFRGGSTYYADSVKGRFTLSRDNAKNTVYLQMNSLKPEDTAVYYCAAVPRTYSGYYYWGQGTKVTVSS | high polyreactivity |
| QVQLVESGGGLVQAGGSLRLICAASGFTIGPYAMGWSRQAPGKERELVAAITIRGGSTYADSVKGRFTISRDNAKNTVYFQMNSLKTEDTAVSYCATVRALEYNYWGQGTQVTVSS | low polyreactivity |
| QVQLVESGGGLVQAGGSLRLICAASGFTIVPNAMGWYRQAPGKERELVAAISRSTGGTYYADSVKGRFTISRDNAKNTVYLQMNSLKPEDTAVYYCAAEYWYWTYGMDYWGQGTQVTVSS | high polyreactivity |
| QVQLVESGGGLVQAGGSLRLICAASGFTIWWYAMGWYRQAPGKERELVATITSGGRTYYADSVKGRFTISRDNAKNTVYLQMNSLKPEDTAVYYCAAESEVGYVYDPMYYLGQGTQVTVSS | high polyreactivity |
| QVQLVESGGGLVQAGGSLRLICAASGGIFATYAMGWYRQAPGKEMELVAAITKRGGSTYYADSVKGRFTISRDNAKNTVYLQMNSLTPEDTAVYYCAAKGYRWFRLGGYYFKFDYWGQGTQVTVSS | high polyreactivity |
| QVQLVESGGGLVQAGGSLRLICAASGIIFDGNAMGWYRQAPGKERELVASITSDSSTNYADSVKGRFTISRDNAKNTVYLQMNSLKPEDTAVYYCAADHWIAPRRDYWGQGTQVTVSS | low polyreactivity |
